The target of assay [1] is T1, human recombinant FcgammaR receptor CD32aR (human, UniProt P12318 34-217, limits assumed).
T1 sequence (looked up): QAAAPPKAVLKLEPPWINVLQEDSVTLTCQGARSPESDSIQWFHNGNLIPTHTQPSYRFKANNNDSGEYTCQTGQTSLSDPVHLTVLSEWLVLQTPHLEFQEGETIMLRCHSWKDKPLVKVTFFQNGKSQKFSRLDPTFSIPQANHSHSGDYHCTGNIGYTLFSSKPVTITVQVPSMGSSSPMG
Briefly: SPR (ProteOn), Mab captured via anti-human Fc, FcgammaR analyte.
Protocol: (§1) Goat polyclonal anti-human Fc antibody was purchased from Jackson Immuno Research Laboratories Inc. (West Grove, Pa.). […] Human recombinant FcγR receptors: CD16aV, CD32bF, CD32aR, and CD32aH were expressed as constructs containing a His10-tag at the C-terminus and purified by Ni-affinity chromatography followed by His-tag removal and SEC purification.
(§2) FcγR affinity determination was carried out as follows. The screening of Mabs for binding to various FcγR receptors occurred in two steps: an indirect capture of Mab samples onto the anti-human Fc-specific polyclonal antibody surface, followed by the injection of five concentrations of each of FcγR receptors. The anti-human Fc surface was prepared on a GLC sensorchip by amine coupling. GLC sensorchip surface was activated by a 1:10 dilution of the standard BioRad sNHS/EDC solutions injected for 140s at 100 μL/min in the analyte (horizontal) direction. Immediately after the activation, 25 microg/mL solution of anti-human Fc in 10 mM NaOAc pH 4.5 was injected in the analyte direction at a flow rate of 25 microL/min for 240s until approximately 4500 or 2500 resonance units (RUs) were immobilized. Remaining active groups were quenched by a 300s injection of 1M ethanolamine at 30 μL/min also in the analyte direction. Mabs for analysis were indirectly captured onto the anti-human Fc surface by injecting 10 microg/ml solutions in the ligand (vertical) direction at a flow rate of 25 microL/min for 240s. Each of the FcγR receptors was subsequently injected in the analyte (horizontal) direction. Firstly, two buffer injections for 30s at 100 microL/min in the analyte (horizontal) direction were used to stabilize the baseline. Five concentrations of a three-fold dilution series of each of the four FcγR receptors starting at 10 μM with a blank buffer control were then simultaneously injected at 50 microL/min for 120 s with a 3 minute dissociation phase, resulting in a set of binding sensorgrams with a buffer reference. […] Sensorgrams were aligned and double-referenced using the buffer blank injection and interspots, and the resulting sensorgrams were analyzed using ProteOn Manager software v3.1.

Assay [2] concerns the target human recombinant FcgammaR receptor CD16aV (human, UniProt P08637 17-208, limits assumed). The assay is described as above.
Protocol: as §1, §2
Assay [3] has as its target T2, recombinant human IL-17A (human, UniProt Q16552 20-155, limits assumed).
T2 construct: Bought reagent
As to the kind of experiment: SPR (ProteOn), IL-17A immobilized, Mab analyte.
Protocol: (§3) IL-17 affinity determination was carried out as follows. The IL-17A surface was generated using a GLC sensorchip activated by a 1:10 dilution of the standard BioRad sNHS/EDC solutions injected for 140s at 100 pt/min in the ligand (vertical) direction. Immediately after the activation, 1 to 4 microg/mL solution of IL-17A in 10 mM NaOAc pH 4.5 was injected in the ligand (vertical) direction at a flow rate of 25 or 100 microL/min until approximately 75-200 resonance units (RUs) were immobilized. Remaining active groups were quenched by a 140s injection of 1M ethanolamine at 100 μL/min also in the ligand direction. […] Firstly, two buffer injections for 30s at 100 microL/min in the analyte (horizontal) direction were used to stabilize the baseline. […] Sensorgrams were aligned and double-referenced using the buffer blank injection and interspots, and the resulting sensorgrams were analyzed using ProteOn Manager software v3.1. The double-referenced sensorgrams were fit to the Langmuir binding model.

The target in the next assay is T3, human recombinant FcRn (human, UniProt P55899 24-297; P61769 21-119, limits assumed).
T3 construct: also called neonatal receptor
T3 sequence (P55899 24-297 limits assumed, chain 1 of 2): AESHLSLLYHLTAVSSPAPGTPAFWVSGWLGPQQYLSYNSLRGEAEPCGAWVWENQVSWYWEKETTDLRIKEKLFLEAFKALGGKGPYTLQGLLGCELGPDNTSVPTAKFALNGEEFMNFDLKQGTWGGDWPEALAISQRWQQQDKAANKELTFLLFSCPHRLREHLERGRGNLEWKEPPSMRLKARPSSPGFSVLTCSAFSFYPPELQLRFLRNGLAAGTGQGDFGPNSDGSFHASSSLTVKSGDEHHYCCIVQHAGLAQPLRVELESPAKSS
T3 sequence (P61769 21-119 limits assumed, chain 2 of 2): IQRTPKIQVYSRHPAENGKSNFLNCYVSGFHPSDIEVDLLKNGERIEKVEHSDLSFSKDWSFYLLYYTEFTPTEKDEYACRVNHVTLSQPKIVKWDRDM
Briefly: SPR (ProteOn), FcRn immobilized, Mab analyte, pH 5.8.

The target of assay [4] is T2, recombinant human IL-17A. Briefly: SPR (ProteOn), IL-17A immobilized, Fab analyte.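 Further: IL-17A amine-coupled on a GLC sensor chip at roughly 75–200 RU, double-referenced sensorgrams fitted with a Langmuir binding model.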
Protocol: as §3
In a further assay the target is T4, recombinant human HER3 (human, UniProt P21860 20-643).
T4 construct: Bought reagent
Briefly: SPR (ProteOn), Mab captured via anti-human Fc, HER3 analyte.

T2 sequence (Q16552 20-155 limits assumed): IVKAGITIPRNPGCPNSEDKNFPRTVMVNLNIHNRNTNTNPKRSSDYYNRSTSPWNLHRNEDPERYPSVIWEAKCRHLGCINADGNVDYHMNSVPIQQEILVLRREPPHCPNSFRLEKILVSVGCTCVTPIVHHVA
human recombinant FcgammaR receptor CD16aV, sequence (P08637 17-208 F176V limits assumed): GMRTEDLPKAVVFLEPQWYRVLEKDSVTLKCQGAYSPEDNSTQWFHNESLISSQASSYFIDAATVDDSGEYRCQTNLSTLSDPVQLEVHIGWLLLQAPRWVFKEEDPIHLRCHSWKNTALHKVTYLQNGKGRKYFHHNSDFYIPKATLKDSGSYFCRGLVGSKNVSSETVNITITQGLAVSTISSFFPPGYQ
Protocol for human recombinant FcRn: FcRn affinity determination was carried out as follows. FcRn surface was generated using a GLC sensorchip activated by a 1:10 dilution of the standard BioRad sNHS/EDC solutions injected for 140s at 100 μL/min in the ligand (vertical) direction. Immediately after the activation, 10 microg/mL solution of FcRn in 10 mM NaOAc pH 4.5 was injected in the ligand (vertical) direction at a flow rate of 25 microL/min for 120s until approximately 2000 resonance units (RUs) were immobilized. Remaining active groups were quenched by a 140s injection of 1M ethanolamine at 30 μL/min also in the ligand direction. The running buffer used on the FcRn surface was PBST pH 5.8. The screening of the Mabs for binding to FcRn was performed by injection of purified Mabs in the analyte (horizontal) direction. Firstly, two buffer injections for 30s at 100 microL/min in the analyte (horizontal) direction were used to stabilize the baseline. Five concentrations of a three-fold dilution series of each Mab starting at 100 nM with a blank buffer control were simultaneously injected at 50 microL/min for 120 s with a 10 minute dissociation phase, resulting in a set of binding sensorgrams with a buffer reference. […] Sensorgrams were aligned and double-referenced using the buffer blank injection and interspots, and the resulting sensorgrams were analyzed using ProteOn Manager software v3.1. The double-referenced sensorgrams were fit to the Langmuir binding model.
Protocol for recombinant human HER3: HER3 affinity determination in Mabs was carried out as follows. The screening of Mabs for binding to HER3 antigen occurred in two steps: an indirect capture of Mabs onto the anti-human Fc-specific polyclonal antibody surface, followed by the injection of five concentrations of HER3. The anti-human Fc surface was prepared on a GLC sensorchip by amine coupling. GLC sensorchip surface was activated by a 1:10 dilution of the standard BioRad sNHS/EDC solutions injected for 140s at 100 pt/min in the analyte (horizontal) direction. Immediately after the activation, 25 microg/mL solution of anti-human Fc in 10 mM NaOAc pH 4.5 was injected in the ligand (vertical) direction at a flow rate of 25 microL/min for 240s until approximately 3000 resonance units (RUs) were immobilized. Remaining active groups were quenched by a 140s injection of 1M ethanolamine at 100 μL/min also in the analyte direction. Mabs for analysis were indirectly captured onto the anti-Fc surface by injecting 20 microg/mL solutions in the ligand (vertical) direction at a flow rate of 25 microL/min for 240s. HER3 was subsequently injected in the analyte (horizontal) direction. Firstly, two buffer injections for 30s at 100 microL/min in the analyte (horizontal) direction were used to stabilize the baseline. […] Sensorgrams were aligned and double-referenced using the buffer blank injection and interspots, and the resulting sensorgrams were analyzed using ProteOn Manager software v3.1. The double-referenced sensorgrams were fit to the Langmuir binding model.

B1: CAT-2200 wild-type lambda Mab (antibody, human IgG1, lambda)
heavy: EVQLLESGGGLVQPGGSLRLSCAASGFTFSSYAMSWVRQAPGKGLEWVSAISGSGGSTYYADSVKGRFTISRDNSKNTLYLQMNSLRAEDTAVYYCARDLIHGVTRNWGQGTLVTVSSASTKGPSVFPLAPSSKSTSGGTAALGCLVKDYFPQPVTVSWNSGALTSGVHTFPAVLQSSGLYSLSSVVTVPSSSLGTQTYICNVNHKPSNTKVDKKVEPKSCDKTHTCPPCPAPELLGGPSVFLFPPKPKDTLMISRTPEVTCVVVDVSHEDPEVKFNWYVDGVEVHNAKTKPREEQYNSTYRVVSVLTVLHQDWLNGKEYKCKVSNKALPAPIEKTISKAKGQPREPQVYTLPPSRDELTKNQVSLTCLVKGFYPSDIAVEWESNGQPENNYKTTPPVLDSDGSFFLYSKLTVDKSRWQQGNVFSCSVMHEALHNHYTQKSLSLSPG
light: NFMLTQPHSVSESPGKTVTISCTRSSGSLANYYVQWYQQRPGSSPTIVIFANNQRPSGVPDRFSGSIDSSSNSASLTISGLKTEDEADYYCQTYDPYSVVFGGGTKLTVLGQPKAAPSVTLFPPSSEELQANKATLVCLISDFYPGAVTVAWKADSSPVKAGVETTTPSKQSNNKYAASSYLSLTPEQWKSHRSYSCQVTHEGSTVEKTVAPTECS
notes: IgG1 Mab format; also called WT
Take B1: the dissociation constant (Kd) stood at 2400 nM in assay [1], 1200 nM in assay [2], 0.027 nM with recombinant human IL-17A [3] and 14.2 nM with human recombinant FcRn.

B2: CAT-2200 designed Vlambda-Ckappa chimeric Fab, design 36 (E83A_T105E) (Fab, V domains shown)
VH: not shown
VL: NFMLTQPHSVSESPGKTVTISCTRSSGSLANYYVQWYQQRPGSSPTIVIFANNQRPSGVPDRFSGSIDSSSNSASLTISGLKTEDAADYYCQTYDPYSVVFGGGTKLEVLR
On to B2, for which the Kd in the assay with recombinant human IL-17A [4] came out at 0.3 nM.

B3: CAT-2200 designed Vlambda-Ckappa chimeric Fab, design 37 (E83A_D85T) (Fab, V domains shown)
VH: not shown
VL: NFMLTQPHSVSESPGKTVTISCTRSSGSLANYYVQWYQQRPGSSPTIVIFANNQRPSGVPDRFSGSIDSSSNSASLTISGLKTEDAATYYCQTYDPYSVVFGGGTKLTVLR
Turning to B3, in the assay with recombinant human IL-17A [4], the dissociation constant Kd came out at 0.2 nM.

B4: CAT-2200 designed Vlambda-Ckappa chimeric Fab, design 38 (E83A_D85T_T105E) (Fab, V domains shown)
VH: not shown
VL: NFMLTQPHSVSESPGKTVTISCTRSSGSLANYYVQWYQQRPGSSPTIVIFANNQRPSGVPDRFSGSIDSSSNSASLTISGLKTEDAATYYCQTYDPYSVVFGGGTKLEVLR
For the molecule B4, the Kd with recombinant human IL-17A [4] amounted to 0.2 nM.

B5: CAT-2200 designed Vlambda-Ckappa chimeric Fab, design 39 (E83A_D85T_T105E_V106I) (Fab, V domains shown)
VH: not shown
VL: NFMLTQPHSVSESPGKTVTISCTRSSGSLANYYVQWYQQRPGSSPTIVIFANNQRPSGVPDRFSGSIDSSSNSASLTISGLKTEDAATYYCQTYDPYSVVFGGGTKLEILR
As to B5, the Kd with recombinant human IL-17A [4] came out at 0.2 nM.

B6: CAT-2200 designed Vlambda-Ckappa chimeric Mab, design 39 (E83A_D85T_T105E_V106I) (antibody, human IgG1, kappa)
heavy: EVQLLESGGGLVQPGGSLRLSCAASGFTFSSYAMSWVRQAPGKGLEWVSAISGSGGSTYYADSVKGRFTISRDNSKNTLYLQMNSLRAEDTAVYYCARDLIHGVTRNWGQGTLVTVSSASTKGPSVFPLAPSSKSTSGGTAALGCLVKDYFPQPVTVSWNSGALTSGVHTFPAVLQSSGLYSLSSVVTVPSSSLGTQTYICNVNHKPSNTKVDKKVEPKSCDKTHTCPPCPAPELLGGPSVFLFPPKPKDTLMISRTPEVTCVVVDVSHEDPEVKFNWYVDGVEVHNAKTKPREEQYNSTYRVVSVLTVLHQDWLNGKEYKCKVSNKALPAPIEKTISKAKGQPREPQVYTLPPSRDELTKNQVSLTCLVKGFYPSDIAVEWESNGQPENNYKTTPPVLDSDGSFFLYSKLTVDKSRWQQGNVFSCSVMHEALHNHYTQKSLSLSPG
light: NFMLTQPHSVSESPGKTVTISCTRSSGSLANYYVQWYQQRPGSSPTIVIFANNQRPSGVPDRFSGSIDSSSNSASLTISGLKTEDAATYYCQTYDPYSVVFGGGTKLEILRTVAAPSVFIFPPSDEQLKSGTASVVCLLNNFYPREAKVQWKVDNALQSGNSQESVTEQDSKDSTYSLSSTLTLSKADYEKHKVYACEVTHQGLSSPVTKSFNRGEC
notes: IgG1 Mab format
B6: the Kd came to 2400 nM in assay [1], 1300 nM in assay [2], 0.044 nM with recombinant human IL-17A [3] and 24.7 nM with human recombinant FcRn.

B7: CAT-2200 designed Vlambda-Ckappa chimeric Mab, design 37 (E83A_D85T) (antibody, human IgG1, kappa)
heavy: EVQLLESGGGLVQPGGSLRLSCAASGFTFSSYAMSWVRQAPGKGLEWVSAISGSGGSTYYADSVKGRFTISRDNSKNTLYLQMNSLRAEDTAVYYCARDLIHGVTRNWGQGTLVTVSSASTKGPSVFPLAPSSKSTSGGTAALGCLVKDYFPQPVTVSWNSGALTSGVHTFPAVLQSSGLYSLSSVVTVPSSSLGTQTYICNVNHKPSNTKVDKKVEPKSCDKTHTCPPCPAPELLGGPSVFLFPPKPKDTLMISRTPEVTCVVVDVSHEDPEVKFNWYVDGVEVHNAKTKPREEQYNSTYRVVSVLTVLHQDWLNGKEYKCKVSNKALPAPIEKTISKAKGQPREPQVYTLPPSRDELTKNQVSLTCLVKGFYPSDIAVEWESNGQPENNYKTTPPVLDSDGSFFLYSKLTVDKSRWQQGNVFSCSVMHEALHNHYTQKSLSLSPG
light: NFMLTQPHSVSESPGKTVTISCTRSSGSLANYYVQWYQQRPGSSPTIVIFANNQRPSGVPDRFSGSIDSSSNSASLTISGLKTEDAATYYCQTYDPYSVVFGGGTKLTVLRTVAAPSVFIFPPSDEQLKSGTASVVCLLNNFYPREAKVQWKVDNALQSGNSQESVTEQDSKDSTYSLSSTLTLSKADYEKHKVYACEVTHQGLSSPVTKSFNRGEC
notes: IgG1 Mab format
For the molecule B7, the Kd in assay [1] was found to be 2400 nM; in assay [2] it was 1400 nM; with recombinant human IL-17A [3], 0.048 nM; with human recombinant FcRn, 23.4 nM.

B8: CAT-2200 designed Vlambda-Ckappa chimeric Mab, design 26 (E83V_D85T) (antibody, human IgG1, kappa)
heavy: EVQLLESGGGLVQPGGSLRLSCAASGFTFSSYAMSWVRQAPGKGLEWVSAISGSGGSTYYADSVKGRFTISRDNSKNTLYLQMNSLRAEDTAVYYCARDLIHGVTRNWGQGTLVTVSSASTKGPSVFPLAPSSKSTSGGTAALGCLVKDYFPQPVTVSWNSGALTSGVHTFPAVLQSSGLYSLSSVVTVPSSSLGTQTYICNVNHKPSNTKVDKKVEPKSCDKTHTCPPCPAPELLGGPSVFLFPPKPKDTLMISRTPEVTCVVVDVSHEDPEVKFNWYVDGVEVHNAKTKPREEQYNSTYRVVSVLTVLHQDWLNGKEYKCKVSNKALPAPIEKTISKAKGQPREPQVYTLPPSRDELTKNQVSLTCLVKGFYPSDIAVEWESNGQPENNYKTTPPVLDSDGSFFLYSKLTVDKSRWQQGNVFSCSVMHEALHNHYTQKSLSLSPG
light: NFMLTQPHSVSESPGKTVTISCTRSSGSLANYYVQWYQQRPGSSPTIVIFANNQRPSGVPDRFSGSIDSSSNSASLTISGLKTEDVATYYCQTYDPYSVVFGGGTKLTVLRTVAAPSVFIFPPSDEQLKSGTASVVCLLNNFYPREAKVQWKVDNALQSGNSQESVTEQDSKDSTYSLSSTLTLSKADYEKHKVYACEVTHQGLSSPVTKSFNRGEC
notes: IgG1 Mab format
As for B8, the Kd in the assay with recombinant human IL-17A [3] turned out to be 0.048 nM.

B9: CAT-2200 Vlambda-Ckappa chimeric Mab (antibody, human IgG1, kappa)
heavy: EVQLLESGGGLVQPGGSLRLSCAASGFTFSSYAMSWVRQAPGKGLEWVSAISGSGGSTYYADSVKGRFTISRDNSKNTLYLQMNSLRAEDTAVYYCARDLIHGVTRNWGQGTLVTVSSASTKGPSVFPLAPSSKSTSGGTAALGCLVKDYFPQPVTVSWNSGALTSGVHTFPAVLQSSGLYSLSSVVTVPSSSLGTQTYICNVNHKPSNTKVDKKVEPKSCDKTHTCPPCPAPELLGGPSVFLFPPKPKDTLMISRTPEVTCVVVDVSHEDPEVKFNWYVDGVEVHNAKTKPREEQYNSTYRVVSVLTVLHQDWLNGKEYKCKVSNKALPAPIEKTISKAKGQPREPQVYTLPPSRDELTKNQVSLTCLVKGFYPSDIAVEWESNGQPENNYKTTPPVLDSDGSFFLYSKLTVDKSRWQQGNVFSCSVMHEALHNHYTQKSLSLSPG
light: NFMLTQPHSVSESPGKTVTISCTRSSGSLANYYVQWYQQRPGSSPTIVIFANNQRPSGVPDRFSGSIDSSSNSASLTISGLKTEDEADYYCQTYDPYSVVFGGGTKLTVLRTVAAPSVFIFPPSDEQLKSGTASVVCLLNNFYPREAKVQWKVDNALQSGNSQESVTEQDSKDSTYSLSSTLTLSKADYEKHKVYACEVTHQGLSSPVTKSFNRGEC
notes: IgG1 Mab format; chimeric light chain without stabilizing substitutions; also called chimera
Turning to B9, the equilibrium dissociation constant (Kd) came out at 2500 nM in assay [1], 0.042 nM in the assay with recombinant human IL-17A [3] and 14.3 nM in the assay with human recombinant FcRn.

B10: CAT-2200 designed Vlambda-Ckappa chimeric Mab, design 29 (E83V_D85T_T105E_V106I) (antibody, human IgG1, kappa)
heavy: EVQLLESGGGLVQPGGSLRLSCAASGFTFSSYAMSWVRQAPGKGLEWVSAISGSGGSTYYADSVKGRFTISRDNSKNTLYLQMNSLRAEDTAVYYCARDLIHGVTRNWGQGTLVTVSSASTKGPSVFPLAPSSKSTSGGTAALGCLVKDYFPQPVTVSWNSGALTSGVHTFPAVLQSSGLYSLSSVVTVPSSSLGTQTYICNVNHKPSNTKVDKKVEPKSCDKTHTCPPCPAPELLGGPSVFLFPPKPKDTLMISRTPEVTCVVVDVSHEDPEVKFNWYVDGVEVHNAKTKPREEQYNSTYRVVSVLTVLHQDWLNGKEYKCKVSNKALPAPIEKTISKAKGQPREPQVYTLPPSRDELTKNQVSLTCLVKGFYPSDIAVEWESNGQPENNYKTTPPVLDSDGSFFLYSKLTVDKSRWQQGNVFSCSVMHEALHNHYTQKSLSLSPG
light: NFMLTQPHSVSESPGKTVTISCTRSSGSLANYYVQWYQQRPGSSPTIVIFANNQRPSGVPDRFSGSIDSSSNSASLTISGLKTEDVATYYCQTYDPYSVVFGGGTKLEILRTVAAPSVFIFPPSDEQLKSGTASVVCLLNNFYPREAKVQWKVDNALQSGNSQESVTEQDSKDSTYSLSSTLTLSKADYEKHKVYACEVTHQGLSSPVTKSFNRGEC
notes: IgG1 Mab format
With B10, the Kd was determined as 2300 nM in assay [1], 1300 nM in assay [2], 0.049 nM with recombinant human IL-17A [3] and 27.9 nM with human recombinant FcRn.

B11: CAT-2200 designed Vlambda-Ckappa chimeric Mab, design 34 (E83I_D85T_T105E_V106I) (antibody, human IgG1, kappa)
heavy: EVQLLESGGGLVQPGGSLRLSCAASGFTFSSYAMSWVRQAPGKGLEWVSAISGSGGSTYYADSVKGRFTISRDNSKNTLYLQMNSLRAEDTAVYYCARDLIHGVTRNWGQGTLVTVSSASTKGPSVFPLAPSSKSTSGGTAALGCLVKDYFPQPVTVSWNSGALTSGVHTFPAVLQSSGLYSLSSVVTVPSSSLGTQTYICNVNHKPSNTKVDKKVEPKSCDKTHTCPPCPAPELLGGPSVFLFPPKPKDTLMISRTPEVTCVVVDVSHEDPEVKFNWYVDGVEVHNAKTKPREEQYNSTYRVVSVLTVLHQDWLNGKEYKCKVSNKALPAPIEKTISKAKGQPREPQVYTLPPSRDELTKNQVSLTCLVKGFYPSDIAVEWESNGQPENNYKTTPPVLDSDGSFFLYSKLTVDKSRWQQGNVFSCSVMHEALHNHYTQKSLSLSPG
light: NFMLTQPHSVSESPGKTVTISCTRSSGSLANYYVQWYQQRPGSSPTIVIFANNQRPSGVPDRFSGSIDSSSNSASLTISGLKTEDIATYYCQTYDPYSVVFGGGTKLEILRTVAAPSVFIFPPSDEQLKSGTASVVCLLNNFYPREAKVQWKVDNALQSGNSQESVTEQDSKDSTYSLSSTLTLSKADYEKHKVYACEVTHQGLSSPVTKSFNRGEC
notes: IgG1 Mab format
Consider B11, for which the dissociation constant (Kd) in the assay with recombinant human IL-17A [3] was 0.053 nM.

B12: CAT-2200 designed Vlambda-Ckappa chimeric Mab, design 32 (E83I_D85T) (antibody, human IgG1, kappa)
heavy: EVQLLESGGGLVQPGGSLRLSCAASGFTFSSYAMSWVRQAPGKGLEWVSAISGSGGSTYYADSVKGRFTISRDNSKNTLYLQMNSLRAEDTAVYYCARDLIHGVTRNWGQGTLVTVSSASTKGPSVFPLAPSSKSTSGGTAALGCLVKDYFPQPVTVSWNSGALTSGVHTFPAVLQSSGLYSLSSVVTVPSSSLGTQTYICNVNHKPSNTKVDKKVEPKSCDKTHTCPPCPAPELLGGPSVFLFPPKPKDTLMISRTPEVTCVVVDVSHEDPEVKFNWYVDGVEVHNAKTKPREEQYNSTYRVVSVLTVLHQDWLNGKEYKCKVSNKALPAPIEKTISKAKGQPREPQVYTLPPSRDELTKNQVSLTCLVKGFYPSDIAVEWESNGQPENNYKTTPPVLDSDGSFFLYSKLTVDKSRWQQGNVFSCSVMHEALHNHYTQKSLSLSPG
light: NFMLTQPHSVSESPGKTVTISCTRSSGSLANYYVQWYQQRPGSSPTIVIFANNQRPSGVPDRFSGSIDSSSNSASLTISGLKTEDIATYYCQTYDPYSVVFGGGTKLTVLRTVAAPSVFIFPPSDEQLKSGTASVVCLLNNFYPREAKVQWKVDNALQSGNSQESVTEQDSKDSTYSLSSTLTLSKADYEKHKVYACEVTHQGLSSPVTKSFNRGEC
notes: IgG1 Mab format
On to B12, for which the dissociation constant Kd in the assay with recombinant human IL-17A [3] was determined as 0.05 nM.

B13: CAT-2200 designed Vlambda-Ckappa chimeric Mab, design 18 (E83F_D85T_T105E) (antibody, human IgG1, kappa, V domains shown)
VH: not shown
VL: NFMLTQPHSVSESPGKTVTISCTRSSGSLANYYVQWYQQRPGSSPTIVIFANNQRPSGVPDRFSGSIDSSSNSASLTISGLKTEDFATYYCQTYDPYSVVFGGGTKLEVLR
notes: IgG1 Mab format
B13: the Kd with recombinant human IL-17A [3] was 0.048 nM.

B14: H3 designed Vlambda-Ckappa chimeric Mab, design 26 (E83V_D85T) (antibody, human IgG1, kappa, name in Kabat numbering)
heavy: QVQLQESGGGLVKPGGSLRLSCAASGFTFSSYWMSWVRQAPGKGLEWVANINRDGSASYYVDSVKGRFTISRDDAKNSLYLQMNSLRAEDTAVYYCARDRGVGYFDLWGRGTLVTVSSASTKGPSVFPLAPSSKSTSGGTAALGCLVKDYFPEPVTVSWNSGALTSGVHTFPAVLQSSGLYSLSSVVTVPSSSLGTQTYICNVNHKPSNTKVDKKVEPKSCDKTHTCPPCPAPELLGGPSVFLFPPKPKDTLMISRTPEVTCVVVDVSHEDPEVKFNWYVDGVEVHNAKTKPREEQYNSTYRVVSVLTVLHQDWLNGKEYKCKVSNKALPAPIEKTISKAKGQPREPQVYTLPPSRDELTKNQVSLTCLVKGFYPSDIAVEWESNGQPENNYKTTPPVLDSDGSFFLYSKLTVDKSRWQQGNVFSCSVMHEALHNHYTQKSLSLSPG
light: QSALTQPASVSGSPGQSITISCTGTSSDVGGYNFVSWYQQHPGKAPKLMIYDVSDRPSGVSDRFSGSKSGNTASLIISGLQADDVATYYCSSYGSSSTHVIFGGGTKVTVLRTVAAPSVFIFPPSDEQLKSGTASVVCLLNNFYPREAKVQWKVDNALQSGNSQESVTEQDSKDSTYSLSSTLTLSKADYEKHKVYACEVTHQGLSSPVTKSFNRGEC
notes: IgG1 Mab format
In the case of B14, the Kd in the assay with recombinant human HER3 turned out to be 56 nM.

B15: H3 designed Vlambda-Ckappa chimeric Mab, design 18 (E83F_D85T_T105E) (antibody, human IgG1, kappa, name in Kabat numbering, V domains shown)
VH: QVQLQESGGGLVKPGGSLRLSCAASGFTFSSYWMSWVRQAPGKGLEWVANINRDGSASYYVDSVKGRFTISRDDAKNSLYLQMNSLRAEDTAVYYCARDRGVGYFDLWGRGTLVTVSS
VL: QSALTQPASVSGSPGQSITISCTGTSSDVGGYNFVSWYQQHPGKAPKLMIYDVSDRPSGVSDRFSGSKSGNTASLIISGLQADDFATYYCSSYGSSSTHVIFGGGTKVEVLR
notes: IgG1 Mab format
For B15, the Kd in the assay with recombinant human HER3 stood at 66 nM.

B16: H3 designed Vlambda-Ckappa chimeric Mab, design 32 (E83I_D85T) (antibody, human IgG1, kappa, name in Kabat numbering)
heavy: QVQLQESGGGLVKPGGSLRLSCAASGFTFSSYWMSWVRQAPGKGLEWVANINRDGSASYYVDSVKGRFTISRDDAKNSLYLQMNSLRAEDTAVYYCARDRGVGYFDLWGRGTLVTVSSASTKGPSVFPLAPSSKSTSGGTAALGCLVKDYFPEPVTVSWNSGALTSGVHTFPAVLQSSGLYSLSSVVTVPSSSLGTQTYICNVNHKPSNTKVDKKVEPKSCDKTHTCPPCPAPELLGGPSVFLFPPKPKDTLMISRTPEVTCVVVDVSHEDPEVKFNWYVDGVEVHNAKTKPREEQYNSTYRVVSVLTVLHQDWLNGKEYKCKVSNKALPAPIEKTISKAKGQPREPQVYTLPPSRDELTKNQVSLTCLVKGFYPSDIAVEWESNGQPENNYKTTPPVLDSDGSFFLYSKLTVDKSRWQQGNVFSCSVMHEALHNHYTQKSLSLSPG
light: QSALTQPASVSGSPGQSITISCTGTSSDVGGYNFVSWYQQHPGKAPKLMIYDVSDRPSGVSDRFSGSKSGNTASLIISGLQADDIATYYCSSYGSSSTHVIFGGGTKVTVLRTVAAPSVFIFPPSDEQLKSGTASVVCLLNNFYPREAKVQWKVDNALQSGNSQESVTEQDSKDSTYSLSSTLTLSKADYEKHKVYACEVTHQGLSSPVTKSFNRGEC
notes: IgG1 Mab format
In the case of B16, the Kd with recombinant human HER3 came out at 67 nM.

Values taken from patent US20200308270A1 (Zymeworks, published 2020).
